Measured values taken from publication doi:10.1101/2024.12.31.630897.

Assays:
[1] = target: GFP polybody (His-tagged GFP nanobody-TMS reconstituted in peptidisc); experiment: BLI
[2] = target: His-tagged GFP nanobody; experiment: BLI

Kd [1]: 2.72 nM
Kd [2]: 0.75 nM
Substance: His-tagged GFP (green fluorescent protein) (from UniProt P42212 1-238) (natural protein)
